Source: patent US9115185

T1: HLA-DR3 (DRB*0301), purified from B-lymphoblastic cell line HAR (human)
T1 chain: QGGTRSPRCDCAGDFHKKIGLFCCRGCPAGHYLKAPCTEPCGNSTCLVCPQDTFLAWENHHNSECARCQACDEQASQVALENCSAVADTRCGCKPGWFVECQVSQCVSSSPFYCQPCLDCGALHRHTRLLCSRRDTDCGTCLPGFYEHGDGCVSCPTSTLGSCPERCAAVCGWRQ


The binders below were run against HLA-DR4 (DRB*0401), purified from B-lymphoblastic cell line BSM (human) (assay: competition with fluorescent HA308-319 Y→F on purified HLA-DR4).

Question: For MHGDTPTLHEYMLDLQPETTDL (modifications not checked) [HPV16 E7 peptide 1-22, P03129 1-22], which IC50 is on record?
Answer: 30 µM

Question: For AIVTLTYDSEWQRDQFLSQVKIPKTITVSTGFMSI (modifications not checked) [HPV16 E2 peptide 331-365], which IC50 is on record?
Answer: 15 µM

Question: How did the IC50 turn out when LRYRFKKHCTLYTAVSSTWHWTGHNVKHKS (modifications not checked) [HPV16 E2 peptide 301-330] was run?
Answer: 10 µM

Question: How did the IC50 turn out when PAGQAEPDRAHYNIVTFCCKCD (modifications not checked) [HPV16 E7 peptide 41-62, P03129 41-62] was run?
Answer: 38 µM

The binders below were run against HLA-DR1 (DRB*0101), purified from B-lymphoblastic cell line LG2.1 (human) (assay: competition with fluorescent HA 308-319 on purified HLA-DR1).

Question: For HYNIVTFCCKCDSTLRLCVQST (modifications not checked) [HPV16 E7 peptide 51-72, P03129 51-72], which IC50 is on record?
Answer: 70 µM

Question: RTLEDLLMGTLGIVCPICSQKP (modifications not checked) [HPV16 E7 peptide 77-98, P03129 77-98] was tested. Which IC50 did it give?
Answer: 46 µM

Question: Which IC50 does the source give for PAGQAEPDRAHYNIVTFCCKCD (modifications not checked) [HPV16 E7 peptide 41-62, P03129 41-62] here?
Answer: 7.4 µM

Question: How did the IC50 turn out when STHVDIRTLEDLLMGTLGIVCP (modifications not checked) [HPV16 E7 peptide 71-92, P03129 71-92] was run?
Answer: 12 µM

Molecular target: T1, HLA-DR3 (DRB*0301), purified from …
Test: competition with fluorescent hsp65 3-13 on purified HLA-DR3

Question: MHGDTPTLHEYMLDLQPETTDL (modifications not checked) [HPV16 E7 peptide 1-22, P03129 1-22] was tested. Which IC50 did it give?
Answer: 0.8 µM

Question: With SSTWHWTGHNVKHKSAIVTLTYDSEWQRDQ (modifications not checked) [HPV16 E2 peptide 316-345] as the binder, how does the IC50 read?
Answer: 30 µM

Question: How did the IC50 turn out when AIVTLTYDSEWQRDQFLSQVKIPKTITVSTGFMSI (modifications not checked) [HPV16 E2 peptide 331-365] was run?
Answer: 10 µM

Question: How did the IC50 turn out when HYNIVTFCCKCDSTLRLCVQST (modifications not checked) [HPV16 E7 peptide 51-72, P03129 51-72] was run?
Answer: 50 µM

Question: CDSTLRLCVQSTHVDIRTLEDL (modifications not checked) [HPV16 E7 peptide 61-82, P03129 61-82] was tested. Which IC50 did it give?
Answer: 65 µM

Question: For YMLDLQPETTDLYCYEQLNDSS (modifications not checked) [HPV16 E7 peptide 11-32, P03129 11-32], which IC50 is on record?
Answer: 50 µM

Question: Which IC50 does the source give for FNSSHKGRINCNSNTTPIVHLKGDANTLKC (modifications not checked) [HPV16 E2 peptide 271-300] here?
Answer: 37 µM

Question: Which IC50 does the source give for PAGQAEPDRAHYNIVTFCCKCD (modifications not checked) [HPV16 E7 peptide 41-62, P03129 41-62] here?
Answer: 55 µM

Each binder was assayed against HLA-DR7 (DRB1*0701), purified from B-lymphoblastic cell line Pitout (human) (assay: competition with fluorescent Ii 80-103 on purified HLA-DR7).

Question: Which IC50 does the source give for MHGDTPTLHEYMLDLQPETTDL (modifications not checked) [HPV16 E7 peptide 1-22, P03129 1-22] here?
Answer: 7 µM

Question: How did the IC50 turn out when HYNIVTFCCKCDSTLRLCVQST (modifications not checked) [HPV16 E7 peptide 51-72, P03129 51-72] was run?
Answer: 11 µM

Question: Which IC50 does the source give for RTLEDLLMGTLGIVCPICSQKP (modifications not checked) [HPV16 E7 peptide 77-98, P03129 77-98] here?
Answer: 0.9 µM

What follows are binders tested against HLA-DR2 (DRB1*0201 [sic]), purified from B-lymphoblastic cell line IWB (human) (assay: competition with fluorescent HA 308-319 on purified HLA-DR2).

Question: How did the IC50 turn out when MHGDTPTLHEYMLDLQPETTDL (modifications not checked) [HPV16 E7 peptide 1-22, P03129 1-22] was run?
Answer: 10 µM

Question: How did the IC50 turn out when RTLEDLLMGTLGIVCPICSQKP (modifications not checked) [HPV16 E7 peptide 77-98, P03129 77-98] was run?
Answer: 22 µM

Question: How did the IC50 turn out when CDSTLRLCVQSTHVDIRTLEDL (modifications not checked) [HPV16 E7 peptide 61-82, P03129 61-82] was run?
Answer: 15 µM

Question: With DLYCYEQLNDSSEEEDEIDGPA (modifications not checked) [HPV16 E7 peptide 21-42, P03129 21-42] as the binder, how does the IC50 read?
Answer: 12 µM

Question: How did the IC50 turn out when PAGQAEPDRAHYNIVTFCCKCD (modifications not checked) [HPV16 E7 peptide 41-62, P03129 41-62] was run?
Answer: 50 µM

Question: For STHVDIRTLEDLLMGTLGIVCP (modifications not checked) [HPV16 E7 peptide 71-92, P03129 71-92], which IC50 is on record?
Answer: 2 µM
